Assay results as given in patent US20210101970A1 (Pfizer, published 2021).

Key:
[1] = biological target: T1, human CXCR5 (human, UniProt P32302 1-372); experiment: cell-based or functional assay
T1 sequence: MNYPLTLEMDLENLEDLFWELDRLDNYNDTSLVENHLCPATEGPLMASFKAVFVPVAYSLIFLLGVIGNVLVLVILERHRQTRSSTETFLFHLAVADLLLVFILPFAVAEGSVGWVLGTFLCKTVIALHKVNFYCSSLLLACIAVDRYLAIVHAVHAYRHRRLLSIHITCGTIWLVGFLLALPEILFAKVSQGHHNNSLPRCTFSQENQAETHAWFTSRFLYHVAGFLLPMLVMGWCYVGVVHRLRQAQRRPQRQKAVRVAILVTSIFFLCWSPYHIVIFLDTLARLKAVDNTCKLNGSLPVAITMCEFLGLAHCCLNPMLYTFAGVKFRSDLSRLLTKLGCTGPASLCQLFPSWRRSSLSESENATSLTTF

[2] = biological target: T1, human CXCR5; experiment: flow cytometry on Raji cells, gMFI titration
Method: The apparent affinity of antibody binding to Raji cells was calculated as the EC₅₀ of equilibrium binding titration curves in which the geometric mean fluorescence intensity (gMFI) of the antigen binding population was quantified by flow cytometry and the results are shown in Table 2.

[3] = biological target: T1, human CXCR5; experiment: flow cytometry, human PBMC B cells
Method: (§1) The apparent affinity for cell surface CXCR5 of chimeric and humanized CXCR5 fucosylated and afucosylated antibodies was assessed. More specifically, to determine the apparent affinity of chimeric and humanized CXCR5 antibodies to CXCR5-expressing cells, cell binding experiments were performed on human and cynomolgus monkey peripheral blood mononuclear cells (PBMCs) and human tonsillar mononuclear cells (TMCs). The apparent affinity of CXCR5 mab binding to CXCR5+ cells (B cells, bona fide Tfh cells, and circulating Tfh-like cells) was calculated as the EC50 of equilibrium binding titration curves in which the geometric mean fluorescence intensity (gMFI) of the antigen binding population was quantified by flow cytometry.
(§2) Following isolation, PBMCs were plated at a density of 1.0×10⁵ cells per well and CD4+ TMCs were plated at a density of 2.0×10⁵ cells per well in isolation buffer (PBS containing 1% FBS and 1 mM EDTA) in 96 well U-bottom plates. The plates were then centrifuged at 1500 rpm for 5 minutes at room temperature. PBMCs and CD4+ TMCs were resuspended in Fluorescence-activated cell sorting (FACS) buffer (PBS containing 1% FBS) containing human crystallized fragment Fc block (2 μL per well; Biolegend) and 4-fold serial dilutions of the antibodies (11-point dilution series, beginning at 5000 ng/mL for PBMCs and 312.5 ng/mL for CD4+ TMCs) and incubated on ice for 2 hours. PBMCs and CD4+ TMCs were then washed with FACS buffer 3 times and resuspended in 50-100 μL of FACs buffer containing fluorescent-conjugated antibodies for staining lymphocyte subsets and a fluorescent-conjugated secondary antibody against human Ig to detect CXCR5 monoclonal antibodies (mAbs). After incubation for 30 minutes at 4° C., PBMCs and CD4+ TMCs were washed with FACS buffer 2 times and resuspended in 125 μL of 0.5% paraformaldehyde (PFA) in PBS. Plates were stored at 4° C. until analysis by flow cytometry (BD LSRFortessa™ Cell Analyzer, BD Biosciences, Franklin Lakes, N.J.).
(§3) The cell binding titration curves were generated by plotting the gMFI of the antigen binding population against the log of CXCR5 antibody concentration. EC₅₀ values were determined using GraphPad Prism® (version 6.0, GraphPad Software, Inc, San Diego, Calif.) nonlinear-regression curve fits and a sigmoidal log of agonist dose-response model, according to the following equation

[4] = biological target: T1, human CXCR5; experiment: flow cytometry, human tonsil Tfh cells
Method: Following centrifugation, red blood cell lysis was performed on the pellet using an ammonium chloride lysis buffer. Platelets were removed using a low speed centrifugation (200×g) for 10 minutes in Phosphate-Buffered Saline (PBS)/2% FBS/2 mM Ethylenediaminetetraacetic acid (EDTA). CD4+ T cells were purified out of the TMC mixture using an EasySep™ Human CD4+ T Cell Enrichment Kit, according to the manufacturer's instructions ([…] Technologies, Vancouver, BC, Canada).
as §2, §3

[5] = biological target: T1, human CXCR5; experiment: cell-based or functional assay; remark: listed apart in the source
[6] = biological target: T2, cynomolgus monkey CXCR5 (cynomolgus monkey, UniProt P32302 1-372 (human entry)); experiment: flow cytometry, cynomolgus PBMC B cells
T2 construct: also called cynoCXCR5; NHP CXCR5
T2 chain: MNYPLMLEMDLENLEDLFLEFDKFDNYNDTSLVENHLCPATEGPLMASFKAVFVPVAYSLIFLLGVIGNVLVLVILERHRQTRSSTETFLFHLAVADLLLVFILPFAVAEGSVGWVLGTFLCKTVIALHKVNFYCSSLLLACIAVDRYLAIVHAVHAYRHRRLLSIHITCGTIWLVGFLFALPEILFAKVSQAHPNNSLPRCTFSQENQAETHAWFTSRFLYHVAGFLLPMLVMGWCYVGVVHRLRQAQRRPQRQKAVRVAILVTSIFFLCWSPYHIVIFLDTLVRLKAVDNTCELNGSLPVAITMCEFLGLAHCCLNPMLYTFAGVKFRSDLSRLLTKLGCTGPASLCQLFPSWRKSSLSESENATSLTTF
Method: as §1, §2, §3

[7] = biological target: T2, cynomolgus monkey CXCR5; experiment: cell-based or functional assay

B1: mouse 11G2 (antibody, V domains shown)
VH: EVKLVESGGGLVQPGGSLRLSCATSGFTFTDFYMSWVRQPPGRALEWLGFIRNKANGYTTEYSASVKGRFTISRDNSQSILYLQMNTLRAGDSATYYCVRVYGSTLHYWGQGTILTVSS
VL: DVVVTQSPDSLAVSLGQRATISCRASESVEYHGTSLMHWYQQKPGQPPKLLIYAASNVESGVPARFSGSGSGTDFSLNIHPVEEGDIAMYFCQQSRKVPWTFGGGTKLEIK
notes: mouse hybridoma mAb; also called 11G2 (hybridoma)
Ca2+ flux IC50 [1]: 5930 pM | EC50 [2]: 968 pM

B2: Afucosyl Chimeric 11G2 (antibody, human IgG1, kappa, V domains shown)
VH: EVKLVESGGGLVQPGGSLRLSCATSGFTFTDFYMSWVRQPPGRALEWLGFIRNKANGYTTEYSASVKGRFTISRDNSQSILYLQMNTLRAGDSATYYCVRVYGSTLHYWGQGTILTVSS
VL: DVVVTQSPDSLAVSLGQRATISCRASESVEYHGTSLMHWYQQKPGQPPKLLIYAASNVESGVPARFSGSGSGTDFSLNIHPVEEGDIAMYFCQQSRKVPWTFGGGTKLEIKR
modifications: afucosylated Fc glycan (Asn297)
notes: made in Potelligent CHOK1SV cells
EC50 [3]: 8.09 pM | EC50 [4]: 45.6 pM | ADCC Activity Average EC50, Human B Cells [5]: 4.39 pM | ADCC Activity Average EC50, Human Tfh Cells [5]: 0.07 pM

B3: mouse 5H7 (antibody, V domains shown)
VH: EVKLVESGGGLVQPGDSLRLSCATSGFTFTDFYMSWVRQPPGRALEWLGFIRNKANGYTTEYSASVKGRFTISRDNSQSILYLQMNTLRAGDSATYYCVRVYGSTLHYWGQGTILTVSS
VL: DVVVTQSPDSLAVSLGQRATISCRASESVEYHGTSLMHWYQQKPGQPPKLLIYAASNVESGVPARFSGSGSGTDFSLNIHPVEEGDVSMFFCQQSRKVPWTFGGGTKLEIK
notes: mouse hybridoma mAb; also called 5H7 (hybridoma)
Ca2+ flux IC50 [1]: 5560 pM | EC50 [2]: 1010 pM

B4: Humanized 11G2 151/152 (antibody, human IgG1, V domains shown)
VH: EVQLVESGGGLVKPGGSLRLSCAASGFTFTDFYMSWVRQAPGKGLEWLGFIRNKANGYTTEYSAPVKGRFTISRDDSKNTLYLQMNSLKTEDTAVYYCVRVYGSTLHYWGQGTLVTVSS
VL: DIQMTQSPSSLSASVGDRVTITCRASESVEYHGTSLMHWYQQKPGKAPKLLIYAASNVESGVPSRFSGSGSGTDFTLTISSLQPEDFATYYCQQSRKVPWTFGQGTKVEIK
notes: also called h11G2 VH (XC152)/VL (XC151)
EC50 [6]: 10.1 pM | EC50 [3]: 13.1 pM | EC50 [4]: 3.33 pM | ADCC Activity Average EC50, NHP B Cells [7]: 43.6 pM | ADCC Activity Average EC50, Human B Cells [5]: 377 pM

B5: Humanized 11G2 153/156 (antibody, human IgG1, V domains shown)
VH: EVQLVESGGGLVQPGGSLRLSCATSGFTFTDFYMSWVRQAPGKGLEWVGFIRNKANGYTTEYSASVKGRFTISRDNAKNSLYLQMNSLRAEDTAVYYCVRVYGSTLHYWGQGTLVTVSS
VL: DIQMTQSPSSLSASVGDRVTITCRASESVEYHGTSLMHWYQQKPGKAPKLLIYAASNVESGVPSRFSGSGSGTDFTLTISSLQPEDFATYFCQQSRKVPWTFGQGTKVEIK
notes: also called h11G2 VH (XC156)/VL (XC153)
EC50 [6]: 7.06 pM | EC50 [3]: 8.88 pM | EC50 [4]: 3.23 pM | ADCC Activity Average EC50, NHP B Cells [7]: 28.1 pM | ADCC Activity Average EC50, Human B Cells [5]: 568 pM

B6: Humanized 11G2 153/155 (antibody, human IgG1, V domains shown)
VH: EVQLVESGGGLVQPGGSLRLSCAASGFTFTDFYMSWVRQAPGKGLEWVGFIRNKANGYTTEYSASVKGRFTISRDNAKNSLYLQMNSLRAEDTAVYYCARVYGSTLHYWGQGTLVTVSS
VL: DIQMTQSPSSLSASVGDRVTITCRASESVEYHGTSLMHWYQQKPGKAPKLLIYAASNVESGVPSRFSGSGSGTDFTLTISSLQPEDFATYFCQQSRKVPWTFGQGTKVEIK
notes: also called h11G2 VH (XC155)/VL (XC153)
EC50 [6]: 7.03 pM | EC50 [3]: 7.79 pM | EC50 [4]: 4.82 pM | ADCC Activity Average EC50, NHP B Cells [7]: 20.7 pM | ADCC Activity Average EC50, Human B Cells [5]: 463 pM

B7: Humanized 11G2 154/157 (antibody, human IgG1, V domains shown)
VH: EVQLVESGGGLVQPGGSLRLSCATSGFTFTDFYMSWVRQAPGKGLEWVGFIRNKANGYTTEYSASVKGRFTISRDNAKSSLYLQMNSLRAEDTAVYYCVRVYGSTLHYWGQGTLVTVSS
VL: DIQMTQSPSSLSASVGDRVTITCRASESVEYHGTSLMHWYQQKPGKAPKLLIYAASNVESGVPSRFSGSGSGTDFTLTISSLQPEDFATYYCQQSRKVPWTFGQGTKVEIK
notes: also called h11G2 VH (XC157)/VL (XC154)
EC50 [6]: 8.65 pM | EC50 [3]: 19.1 pM | EC50 [4]: 7.24 pM | ADCC Activity Average EC50, NHP B Cells [7]: 54 pM | ADCC Activity Average EC50, Human B Cells [5]: 517 pM

B8: mouse 41A10 (antibody, V domains shown)
VH: EVQLVESGGDLVKPGGSLKLSCAASGFTFRSYGMSWVRQTPDKRLEWVATISSGGTYTFYPDILKGRITISRDNAKNTLYLQMSNLKSEDTAMYYCARRGEDYRGALEHWGQGTSVTVSS
VL: QIVLTQSPAVMSASPGEKVTMTCSASSSVNYIHWYQQKSGTSPKRWIYETSRLASGVPVRFSGSGSGTSYSLTISTMEAEDAATYYCQQWSSNPLTFGAGTKLELK
notes: mouse hybridoma mAb; also called 41A10 (hybridoma)
Ca2+ flux IC50 [1]: 14700 pM | EC50 [2]: 805 pM

B9: Afucosyl Chimeric 41A10 (antibody, human IgG1, kappa, V domains shown)
VH: EVQLVESGGDLVKPGGSLKLSCAASGFTFRSYGMSWVRQTPDKRLEWVATISSGGTYTFYPDILKGRITISRDNAKNTLYLQMSNLKSEDTAMYYCARRGEDYRGALEHWGQGTSVTVSS
VL: QIVLTQSPAVMSASPGEKVTMTCSASSSVNYIHWYQQKSGTSPKRWIYETSRLASGVPVRFSGSGSGTSYSLTISTMEAEDAATYYCQQWSSNPLTFGAGTKLELKR
modifications: afucosylated Fc glycan (Asn297)
ADCC Activity Average EC50, Human B Cells [5]: 54.5 pM

B10: Humanized 41A10 142/147 (antibody, human IgG1, V domains shown)
VH: EVQLVESGGGLVQPGGSLRLSCAASGFTFRSYGMSWVRQAPGKGLEWVATISSGGTYTFYPDILKGRITISRDNAKNSLYLQMNSLRAEDTAVYYCARRGEDYRGALEHWGQGTLVTVSS
VL: DIQMTQSPSSLSASVGDRVTITCSASSSVNYIHWYQQKPGKAPKRLIYETSRLASGVPSRFSGSGSGTDYTLTISSLQPEDFATYYCQQWSSNPLTFGQGTKVEIK
notes: also called h41A10 VH (XC147)/VL (XC142)
EC50 [6]: 2050 pM | EC50 [3]: 153 pM | ADCC Activity Average EC50, Human B Cells [5]: 1240 pM

B11: Humanized 41A10 142/148 (antibody, human IgG1, V domains shown)
VH: EVQLVESGGGLVQPGGSLRLSCAASGFTFRSYGMSWVRQAPGKGLEWVATISSGGTYTFYPDILKGRFTISRDNAKNSLYLQMNSLRAEDTAVYYCARRGEDYRGALEHWGQGTLVTVSS
VL: DIQMTQSPSSLSASVGDRVTITCSASSSVNYIHWYQQKPGKAPKRLIYETSRLASGVPSRFSGSGSGTDYTLTISSLQPEDFATYYCQQWSSNPLTFGQGTKVEIK
notes: also called h41A10 VH (XC148)/VL (XC142)
EC50 [6]: 1960 pM | EC50 [3]: 152 pM | ADCC Activity Average EC50, Human B Cells [5]: 1110 pM
